For assay [1], the target named is activin A growth factor growth factor domain (Homo sapiens) (UniProt P08476). The conditions noted are these: cited from earlier work.
The target in a further assay is the GF and c-AMH. Nature of the assay: ELISA; c-AMH or GF captured on mAb-C1; various concentrations of AMHR2-Fc/Fc in solution; bound AMHR2-Fc/Fc detected with antihuman-Fc Ab conjugated to HRP; quadratic fit.
The target of assay [2] is anti-Müllerian hormone growth factor (AMH GF), the mature C-terminal domain (human) (UniProt P03971). Nature of the assay: ELISA; c-AMH diluted to 1 ng/ml (8.8 pM) in PBS with 1% BSA and 1% goat serum, 10 days at room temperature; ELISA that detects only intact complex; Kd calculated from the fraction of intact complex.
Chain of anti-Müllerian hormone growth factor (AMH GF), the mature C-terminal domain (human) (P03971 452-560): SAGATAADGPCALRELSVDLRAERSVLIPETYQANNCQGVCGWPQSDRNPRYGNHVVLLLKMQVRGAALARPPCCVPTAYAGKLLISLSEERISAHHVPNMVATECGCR
The target is the same in assay [3]. Kind of assay: ELISA; AMHR2-Fc/Fc captured on goat antihuman Fc Ab on the plate; c-AMH 0.03 to 52.83 nM; bound AMH detected with nonbiotinylated mAb-C1 or mAb-N1 and antimouse-Fc-HRP, added one by one or as a preformed complex; data fit globally to the equations of Perelson and DeLisi for ligand-induced receptor dimerization, with the quadratic equation for K_mono and Kbi; [R0] = 0.1 nM.

Assay [4] addresses AMHR2-Fc/Fc, heterodimer of one AMHR2-Fc chain (extracellular domain of human AMHR2 fused to human IgG1 Fc) disulfide bonded to one Fc-only chain (human) (UniProt Q16671). Nature of the assay: ELISA; AMHR2-Fc/Fc (0.75 ug/ml) captured on goat antihuman Fc Ab coated on the plate; c-AMH or GF serially diluted, 2 to 4 h; bound AMH detected with biotinylated mAb-C1 (GF) or mAb-N1 (prodomain) and SA-HRP; data fit to the quadratic equation for a reversible association reaction.

Assay [5] has the same target. Kind of assay: ELISA; AMHR2-Fc/Fc captured on goat antihuman Fc Ab on the plate; c-AMH 0.03 to 52.83 nM; bound AMH detected with nonbiotinylated mAb-C1 or mAb-N1 and antimouse-Fc-HRP, added one by one or as a preformed complex; data fit globally to the equations of Perelson and DeLisi for ligand-induced receptor dimerization, with the quadratic equation for K_mono and Kbi; [R0] = 0.1 nM.

Chain of cleaved anti-Müllerian hormone (c-AMH), the noncovalent complex of the AMH prodomain with the AMH growth factor (P03971 25-451 limits assumed): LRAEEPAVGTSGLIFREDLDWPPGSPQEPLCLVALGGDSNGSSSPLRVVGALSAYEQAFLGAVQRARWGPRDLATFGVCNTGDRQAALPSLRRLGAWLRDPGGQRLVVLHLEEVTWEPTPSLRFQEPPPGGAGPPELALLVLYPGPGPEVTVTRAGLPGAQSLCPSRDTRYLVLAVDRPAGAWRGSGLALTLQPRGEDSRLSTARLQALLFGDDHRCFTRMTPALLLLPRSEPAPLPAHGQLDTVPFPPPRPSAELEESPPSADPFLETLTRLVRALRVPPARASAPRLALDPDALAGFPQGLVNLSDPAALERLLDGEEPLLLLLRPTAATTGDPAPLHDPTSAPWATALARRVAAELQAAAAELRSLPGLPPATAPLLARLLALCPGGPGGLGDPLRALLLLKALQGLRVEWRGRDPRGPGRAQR
Chain of cleaved anti-Müllerian hormone (c-AMH), the noncovalent complex of the AMH prodomain with the AMH growth factor (P03971 452-560 limits assumed): as the sequence (P03971 452-560) above
Chain of activin A prodomain prodomain (P08476 21-310): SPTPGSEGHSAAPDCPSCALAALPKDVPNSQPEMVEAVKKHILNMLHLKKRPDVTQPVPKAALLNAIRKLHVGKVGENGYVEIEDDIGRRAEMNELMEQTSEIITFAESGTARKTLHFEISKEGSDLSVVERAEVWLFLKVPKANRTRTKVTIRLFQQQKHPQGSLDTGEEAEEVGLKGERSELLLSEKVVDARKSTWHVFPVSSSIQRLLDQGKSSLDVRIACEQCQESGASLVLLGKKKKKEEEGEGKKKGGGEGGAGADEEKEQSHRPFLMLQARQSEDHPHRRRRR
Chain of activin A growth factor growth factor domain (Homo sapiens) (P08476 311-426): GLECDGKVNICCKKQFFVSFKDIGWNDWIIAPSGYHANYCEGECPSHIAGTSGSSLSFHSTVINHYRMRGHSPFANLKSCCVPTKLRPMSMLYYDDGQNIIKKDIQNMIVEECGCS

In the case of “activin A prodomain prodomain (from UniProt P08476)”, in assay [1], the Kd was 5 nM.

On to “AMHR2-Fc/Fc, heterodimer of one AMHR2-Fc chain (extracellular domain of human AMHR2 fused to human IgG1 Fc) disulfide bonded to one Fc-only chain (from UniProt Q16671 18-149; P01857 104-330) (Fc fusion)”, for which the dissociation constant (Kd) in the assay with the GF and c-AMH was 3 to 4 nM.

On to “anti-Müllerian hormone prodomain (N-terminal prodomain of c-AMH) (domain or fragment)”, for which, in assay [2], the Kd is 0.0004 nM and the intact complex left after 10 days at 8.8 pM, percent of samples diluted immediately before the assay was 80%. Moreover, in assay [3], the KT (apparent dissociation constant of the receptor-bound AMH complex, at [R0] = 100 pM), at 0.03 nM c-AMH worked out at 7.5 pM; the KT (apparent dissociation constant of the receptor-bound AMH complex, at [R0] = 100 pM), at 0.05 nM c-AMH stood at 22.1 pM; the KT (apparent dissociation constant of the receptor-bound AMH complex, at [R0] = 100 pM), at 0.10 nM c-AMH was determined as 24.3 pM; the KT (apparent dissociation constant of the receptor-bound AMH complex, at [R0] = 100 pM), at 0.21 nM c-AMH came out at 36.6 pM. For the same substance, in assay [3], the KT (apparent dissociation constant of the receptor-bound AMH complex, at [R0] = 100 pM), at 0.41 nM c-AMH was 38.7 pM; the KT (apparent dissociation constant of the receptor-bound AMH complex, at [R0] = 100 pM), at 0.83 nM c-AMH was 45.3 pM; the KT (apparent dissociation constant of the receptor-bound AMH complex, at [R0] = 100 pM), at 1.65 nM c-AMH is 26.2 pM; the KT (apparent dissociation constant of the receptor-bound AMH complex, at [R0] = 100 pM), at 3.30 nM c-AMH was 10 pM. In assay [3], the KT (apparent dissociation constant of the receptor-bound AMH complex, at [R0] = 100 pM), at 6.60 nM c-AMH came to 6.1 pM; the KT (apparent dissociation constant of the receptor-bound AMH complex, at [R0] = 100 pM), at 13.21 nM c-AMH stood at 2.7 pM; the KT (apparent dissociation constant of the receptor-bound AMH complex, at [R0] = 100 pM), at 26.41 nM c-AMH; taken as a measure of K mono amounted to 1 pM; the KT (apparent dissociation constant of the receptor-bound AMH complex, at [R0] = 100 pM), at 52.83 nM c-AMH; taken as a measure of K mono is 0.8 pM. Besides, in assay [3], the [NCT]/[RL + RLR], fraction-intact AMH complex, at 0.03 nM c-AMH was found to be 0.29; the [NCT]/[RL + RLR], fraction-intact AMH complex, at 0.05 nM c-AMH was determined as 0.234; the [NCT]/[RL + RLR], fraction-intact AMH complex, at 0.10 nM c-AMH came to 0.271; the [NCT]/[RL + RLR], fraction-intact AMH complex, at 0.21 nM c-AMH is 0.276. Also, in assay [3], the [NCT]/[RL + RLR], fraction-intact AMH complex, at 0.41 nM c-AMH came to 0.347; the [NCT]/[RL + RLR], fraction-intact AMH complex, at 0.83 nM c-AMH turned out to be 0.386; the [NCT]/[RL + RLR], fraction-intact AMH complex, at 1.65 nM c-AMH amounted to 0.521; the [NCT]/[RL + RLR], fraction-intact AMH complex, at 3.30 nM c-AMH is 0.688. Moreover, in assay [3], the [NCT]/[RL + RLR], fraction-intact AMH complex, at 6.60 nM c-AMH is 0.767; the [NCT]/[RL + RLR], fraction-intact AMH complex, at 13.21 nM c-AMH is 0.845; the [NCT]/[RL + RLR], fraction-intact AMH complex, at 26.41 nM c-AMH was determined as 0.903; the [NCT]/[RL + RLR], fraction-intact AMH complex, at 52.83 nM c-AMH amounted to 0.917.

For “cleaved anti-Müllerian hormone (c-AMH), the noncovalent complex of the AMH prodomain with the AMH growth factor (from UniProt P03971 452-560)”, the Kd in assay [4] amounted to 0.3 nM. Also, in assay [5], the K1 (dissociation constant of the initial monovalent binding step; fit of Figure 5C) is 1.1 nM; the K1 (dissociation constant of the initial monovalent binding step; fit of Figure 5D) stood at 1.1 nM; the [CT]/[R0], bound AMH without prodomain, estimate of [RLR]/[R0], at 0.03 nM c-AMH is 0.031; the [CT]/[R0], bound AMH without prodomain, estimate of [RLR]/[R0], at 0.05 nM c-AMH is 0.067. Also, in assay [5], the [CT]/[R0], bound AMH without prodomain, estimate of [RLR]/[R0], at 0.10 nM c-AMH is 0.091; the [CT]/[R0], bound AMH without prodomain, estimate of [RLR]/[R0], at 0.21 nM c-AMH was 0.147; the [CT]/[R0], bound AMH without prodomain, estimate of [RLR]/[R0], at 0.41 nM c-AMH is 0.206; the [CT]/[R0], bound AMH without prodomain, estimate of [RLR]/[R0], at 0.83 nM c-AMH was 0.284. For the same substance, in assay [5], the [CT]/[R0], bound AMH without prodomain, estimate of [RLR]/[R0], at 1.65 nM c-AMH is 0.285; the [CT]/[R0], bound AMH without prodomain, estimate of [RLR]/[R0], at 3.30 nM c-AMH is 0.22; the [CT]/[R0], bound AMH without prodomain, estimate of [RLR]/[R0], at 6.60 nM c-AMH was 0.199; the [CT]/[R0], bound AMH without prodomain, estimate of [RLR]/[R0], at 13.21 nM c-AMH is 0.145. For the same substance, in assay [5], the [CT]/[R0], bound AMH without prodomain, estimate of [RLR]/[R0], at 26.41 nM c-AMH is 0.094; the [CT]/[R0], bound AMH without prodomain, estimate of [RLR]/[R0], at 52.83 nM c-AMH is 0.086; the [NCT]/[R0], intact AMH complex bound (mAb-N1), estimate of [RL]/[R0], at 0.03 nM c-AMH is 0.013; the [NCT]/[R0], intact AMH complex bound (mAb-N1), estimate of [RL]/[R0], at 0.05 nM c-AMH was 0.021. Moreover, in assay [5], the [NCT]/[R0], intact AMH complex bound (mAb-N1), estimate of [RL]/[R0], at 0.10 nM c-AMH is 0.034; the [NCT]/[R0], intact AMH complex bound (mAb-N1), estimate of [RL]/[R0], at 0.21 nM c-AMH was 0.056; the [NCT]/[R0], intact AMH complex bound (mAb-N1), estimate of [RL]/[R0], at 0.41 nM c-AMH is 0.109; the [NCT]/[R0], intact AMH complex bound (mAb-N1), estimate of [RL]/[R0], at 0.83 nM c-AMH is 0.178. Moreover, in assay [5], the [NCT]/[R0], intact AMH complex bound (mAb-N1), estimate of [RL]/[R0], at 1.65 nM c-AMH is 0.311; the [NCT]/[R0], intact AMH complex bound (mAb-N1), estimate of [RL]/[R0], at 3.30 nM c-AMH was 0.487; the [NCT]/[R0], intact AMH complex bound (mAb-N1), estimate of [RL]/[R0], at 6.60 nM c-AMH is 0.654; the [NCT]/[R0], intact AMH complex bound (mAb-N1), estimate of [RL]/[R0], at 13.21 nM c-AMH is 0.794. Further, in assay [5], the [NCT]/[R0], intact AMH complex bound (mAb-N1), estimate of [RL]/[R0], at 26.41 nM c-AMH was 0.871; the [NCT]/[R0], intact AMH complex bound (mAb-N1), estimate of [RL]/[R0], at 52.83 nM c-AMH was 0.941; the [R0]/K2 (second, bivalent binding step; dimensionless) was 6; the [R0]/K2 (second, bivalent binding step; dimensionless; fit of Figure 5C) was determined as 3.7. In assay [5], this substance displayed a [R0]/K2 (second, bivalent binding step; dimensionless; fit of Figure 5D) of 4.9; a [RL+2RLR]/[R0], fraction-receptor occupancy, at 0.03 nM c-AMH of 0.103; a [RL+2RLR]/[R0], fraction-receptor occupancy, at 0.05 nM c-AMH of 0.163; a [RL+2RLR]/[R0], fraction-receptor occupancy, at 0.10 nM c-AMH of 0.254. Also, in assay [5], the [RL+2RLR]/[R0], fraction-receptor occupancy, at 0.21 nM c-AMH came to 0.386; the [RL+2RLR]/[R0], fraction-receptor occupancy, at 0.41 nM c-AMH amounted to 0.538; the [RL+2RLR]/[R0], fraction-receptor occupancy, at 0.83 nM c-AMH stood at 0.654; the [RL+2RLR]/[R0], fraction-receptor occupancy, at 1.65 nM c-AMH stood at 0.789. In assay [5], this substance gave a [RL+2RLR]/[R0], fraction-receptor occupancy, at 3.30 nM c-AMH of 0.834; a [RL+2RLR]/[R0], fraction-receptor occupancy, at 6.60 nM c-AMH of 0.917; a [RL+2RLR]/[R0], fraction-receptor occupancy, at 13.21 nM c-AMH of 0.951; a [RL+2RLR]/[R0], fraction-receptor occupancy, at 26.41 nM c-AMH of 0.989. In assay [5], the [RL+2RLR]/[R0], fraction-receptor occupancy, at 52.83 nM c-AMH is 1; the [RL+RLR]/[R0], fraction-maximal AMH binding, at 0.03 nM c-AMH was 0.043; the [RL+RLR]/[R0], fraction-maximal AMH binding, at 0.05 nM c-AMH stood at 0.088; the [RL+RLR]/[R0], fraction-maximal AMH binding, at 0.10 nM c-AMH worked out at 0.125. In assay [5], the [RL+RLR]/[R0], fraction-maximal AMH binding, at 0.21 nM c-AMH came out at 0.203; the [RL+RLR]/[R0], fraction-maximal AMH binding, at 0.41 nM c-AMH stood at 0.315; the [RL+RLR]/[R0], fraction-maximal AMH binding, at 0.83 nM c-AMH was 0.463; the [RL+RLR]/[R0], fraction-maximal AMH binding, at 1.65 nM c-AMH was found to be 0.596. Also, in assay [5], the [RL+RLR]/[R0], fraction-maximal AMH binding, at 3.30 nM c-AMH stood at 0.707; the [RL+RLR]/[R0], fraction-maximal AMH binding, at 6.60 nM c-AMH came to 0.854; the [RL+RLR]/[R0], fraction-maximal AMH binding, at 13.21 nM c-AMH amounted to 0.94; the [RL+RLR]/[R0], fraction-maximal AMH binding, at 26.41 nM c-AMH worked out at 0.965. In assay [5], this substance gave a [RL+RLR]/[R0], fraction-maximal AMH binding, at 52.83 nM c-AMH of 1.03.

Source of the values: paper PMC8801479.
